Data set [1] concerns the target dihydrolipoyl succinyltransferase (E2o) of the oxoglutarate dehydrogenase complex (Chaetomium thermophilum (endogenous in the native cell extract)). Kind of data set: cryo-EM structure; native SEC fraction of C. thermophilum lysate, 0.3 mg/mL, single-particle analysis with octahedral symmetry; E2o core map at 3.35 Å.
Substrate in data set [2]: CC(C)(COP(=O)(O)OP(=O)(O)OC[C@H]1O[C@@H](n2cnc3c(N)ncnc32)[C@H](O)[C@@H]1OP(=O)(O)O)[C@@H](O)C(=O)NCCC(=O)NCCS
The data set can be described thus: cells, lysate or membranes. The format is biochemical, Thermochaetoides thermophila. The settings on record: native SEC fraction, 4 mM α-ketoglutarate, 3 mM NAD+, 2 mM ThDP, 2 mM MgCl2, 100 mM NaCl, 30 mM K2HPO4 pH 7.5, 37 °C, CoA 5-1000 µM, substrate excess inhibition, linear asymptote used.

What is called stoichiometry N is a count of units in the complex or per binding partner. With “dihydrolipoyl succinyltransferase (E2o) of the oxoglutarate dehydrogenase complex (enzyme)”, the stoichiometry N in data set [1] stood at 24.

B1: OGDHc (E2o as CoA site) (Thermochaetoides thermophila DSM 1495) (protein)
chain: TYADKIIKVPQMAESITEGTLKQWNKAVGDYVEADEEIATIETDKIDVAVNAPEAGVIKEFFVNEEDTVLVGQDLVRLEVGGEKPAEAAKEQPKAAAPEPKVEEKKVPEAPAPEPSKTAAPAPAPPKQEAPASPKPASKPAETPAVTLGNREERRVKMNRMRLRIAERLKQSQNTAASLTTFNEVDMSALIEFRNKYKDEVLKKTGVKLGFMSAFSRAVVLAIRDLPVVNASIEGPNGGDTIVYRDYVDISVAVATEKGLVTPVVRNAETMDLITIEKTIAELGKKARDGKLTIEDMAGGTFTISNGGVFGSLMGTPIINLPQSAVLGLHAIKERPVAVNGKVEIRPMMYLALTYDHRLLDGREAVQFLVKVKEYIEDPRKMLL
notes: same complex as P1: endogenous native OGDHc in SEC fraction 6 of cell extract; with 2-oxoglutarate dehydrogenase, mitochondrial; Dihydrolipoyl dehydrogenase, mitochondrial; Alpha-ketoglutarate dehydrogenase subunit 4, mitochondrial
As a reminder, the Km is the concentration of substrate that gives half-maximal velocity. In the case of B1, the Michaelis constant (Km) in data set [2] came to 22.81 ± 11.93 µM.

The values are drawn from PMC10203282, “Structural analysis of an endogenous 4-megadalton succinyl-CoA-generating metabolon” (Communications Biology, 2023).
